Assays:
Details in all cases: both partners purified
[1] = molecular target: T1, Prostate-specific membrane antigen (PSMA), human (Homo sapiens, UniProt Q04609); experiment: SPR; Biacore T200, multicycle kinetics; antibody captured on a Protein G chip (~50 RU), PSMA as analyte 25 to 1.5625 nM in HBS-EP+, 35 μL/min, association 600 s, dissociation 2400 s; 1-to-1 binding model with global Rmax
T1 construct: human FOLH1 (PSMA), UniProt Q04609; The methods of the multicycle SPR say only 'PSMA (R&D Systems)'; R&D Systems' recombinant human PSMA is, as far as recalled, the extracellular domain (about K44-A750) with a His tag; also called Human FOLH1; human PSMA; source: bought: R&D Systems (multicycle SPR)

mouse PSMA [2] = molecular target: T2, mouse PSMA (Mus musculus, UniProt O35409); experiment: SPR; Biacore T200, single-cycle kinetics at 25 °C; DOTA-conjugated antibodies captured on a Protein G chip (~50 RU), PSMA as analyte 12.5 to 50 nM in HBS-EP+, 40 μL/min; Langmuir (1:1) model
T2 construct: PSMA (Folh1) of mouse; also called murine PSMA
T2 sequence (O35409 whole entry): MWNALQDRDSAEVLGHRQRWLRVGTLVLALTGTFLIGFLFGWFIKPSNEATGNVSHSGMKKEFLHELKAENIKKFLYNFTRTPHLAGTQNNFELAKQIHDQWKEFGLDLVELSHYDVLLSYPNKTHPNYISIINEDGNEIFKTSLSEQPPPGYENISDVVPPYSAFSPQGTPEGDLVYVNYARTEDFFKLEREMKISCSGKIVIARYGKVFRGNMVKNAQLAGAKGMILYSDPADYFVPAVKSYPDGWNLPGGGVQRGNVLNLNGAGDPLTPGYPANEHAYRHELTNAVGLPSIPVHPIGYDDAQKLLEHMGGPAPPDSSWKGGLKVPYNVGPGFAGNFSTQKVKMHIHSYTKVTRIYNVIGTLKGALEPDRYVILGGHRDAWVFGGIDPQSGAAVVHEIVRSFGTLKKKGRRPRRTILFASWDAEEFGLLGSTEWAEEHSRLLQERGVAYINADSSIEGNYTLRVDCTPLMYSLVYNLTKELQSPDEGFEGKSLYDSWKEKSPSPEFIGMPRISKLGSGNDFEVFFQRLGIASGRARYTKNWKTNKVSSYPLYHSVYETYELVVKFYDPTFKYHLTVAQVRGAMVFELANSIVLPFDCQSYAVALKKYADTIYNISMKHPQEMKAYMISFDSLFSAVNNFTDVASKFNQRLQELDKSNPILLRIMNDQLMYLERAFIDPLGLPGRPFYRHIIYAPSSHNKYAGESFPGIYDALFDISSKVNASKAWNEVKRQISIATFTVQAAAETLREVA

mouse PSMA [3] = molecular target: T3, mouse PSMA (Mus musculus, UniProt O35409); experiment: SPR; Biacore T200, single-cycle kinetics, 25 °C, HBS-EP+; antibody-DOTA captured on a Protein G chip (~50 RU); PSMA as analyte, three-point 2-fold dilution 12.5-50 nM, 40 uL/min; association 200 s, dissociation 1500 s; Langmuir 1:1 fit
T3 construct: mouse prostate-specific membrane antigen (PSMA), purified protein; also called PSMA (Mouse); murine PSMA
T3 sequence (O35409 whole entry): as above

Binder | Kd [1] [pM] | koff [1] [s⁻¹] | kon [1] [M⁻¹ s⁻¹] | binding result (mouse PSMA [3]) | binding result (mouse PSMA [2])
ANT4044 IgG1 (antibody, V domains shown, VH of the humanized antibody ANT4044 (derived from murine J591); IgG1 heavy chain constant region, unmodified; VK of the humanized antibody ANT4044; constant region of the light chain is not described; IgG1; also called unmodified IgG1; ANT4044 unmodified IgG1 construct; source: CHO cells, transiently transfected; purified (Protein A, preparative SEC); copies: 2 + 2) VH: EVQLVQSGAEVKKPGASVKVSCKASGYTFTEYTIHWVRQAPGKGLEWIGNINPNNGGTTYNQKFEDRVTITVDKSTSTAYMELSSLRSEDTAVYYCAAGWNFDYWGQGTTVTVSS VL: DIQMTQSPSTLSASVGDRVTITCKASQDVGTAVDWYQQKPGQAPKLLIYWASTRHTGVPDRFSGSGSGTDFTLTISRLQPEDFAVYYCQQYNSYPLTFGQGTKVDIK | 734 | 7.88e-05 | 107000 | – | –
ANT4044-DOTA (antibody, V domains shown, VH of ANT4044, as the heavy chain of m1; VK of ANT4044, as the light chain of m1; constant region of the light chain is not described, as the light chain of m1; source: CHO cells, transiently transfected, purified; conjugated with NHS-DOTA; copies: 2 + 2) VH: EVQLVQSGAEVKKPGASVKVSCKASGYTFTEYTIHWVRQAPGKGLEWIGNINPNNGGTTYNQKFEDRVTITVDKSTSTAYMELSSLRSEDTAVYYCAAGWNFDYWGQGTTVTVSS VL: DIQMTQSPSTLSASVGDRVTITCKASQDVGTAVDWYQQKPGQAPKLLIYWASTRHTGVPDRFSGSGSGTDFTLTISRLQPEDFAVYYCQQYNSYPLTFGQGTKVDIK | – | – | – | – | no binding (tested: 12.5 to 50 nM tested)
ANT4044 IgG1 (H310A, H435Q) (antibody, V domains shown, VH of ANT4044, as the heavy chain of m1; IgG1 heavy chain constant region with H310A and H435Q; VK of ANT4044, as the light chain of m1; constant region of the light chain is not described, as the light chain of m1; IgG1; Lead construct; the introduction names 'this engineered PSMA antibody' TLX592 without saying which variant is meant; also called modified IgG1 (H310A, H435Q); PK-modified …) VH: EVQLVQSGAEVKKPGASVKVSCKASGYTFTEYTIHWVRQAPGKGLEWIGNINPNNGGTTYNQKFEDRVTITVDKSTSTAYMELSSLRSEDTAVYYCAAGWNFDYWGQGTTVTVSS VL: DIQMTQSPSTLSASVGDRVTITCKASQDVGTAVDWYQQKPGQAPKLLIYWASTRHTGVPDRFSGSGSGTDFTLTISRLQPEDFAVYYCQQYNSYPLTFGQGTKVDIK | 737 | 7.48e-05 | 101000 | – | –

Now from value to binder, other results behind:

Kd [1] [pM] | koff [1] [s⁻¹] | kon [1] [M⁻¹ s⁻¹] | binding result (mouse PSMA [3]) | Binder | binding result (mouse PSMA [2])
– | – | – | no binding (tested: 12.5 to 50 nM) | ANT4044-DOTA (antibody, V domains shown) VH: EVQLVQSGAEVKKPGASVKVSCKASGYTFTEYTIHWVRQAPGKGLEWIGNINPNNGGTTYNQKFEDRVTITVDKSTSTAYMELSSLRSEDTAVYYCAAGWNFDYWGQGTTVTVSS VL: DIQMTQSPSTLSASVGDRVTITCKASQDVGTAVDWYQQKPGQAPKLLIYWASTRHTGVPDRFSGSGSGTDFTLTISRLQPEDFAVYYCQQYNSYPLTFGQGTKVDIK | –
743 | 0.000104 | 139000 | – | ANT4044 IgG4 (S228P, L235E, H310A, H435Q) (antibody, V domains shown, VH of ANT4044, as the heavy chain of m1; IgG4 heavy chain constant region with S228P, L235E, H310A and H435Q; VK of ANT4044, as the light chain of m1; constant region of the light chain is not described, as the light chain of m1; IgG4; also called modified IgG4; source: CHO cells, transiently transfected; purified (Protein G, preparative SEC); copies: 2 + 2) VH: EVQLVQSGAEVKKPGASVKVSCKASGYTFTEYTIHWVRQAPGKGLEWIGNINPNNGGTTYNQKFEDRVTITVDKSTSTAYMELSSLRSEDTAVYYCAAGWNFDYWGQGTTVTVSS VL: DIQMTQSPSTLSASVGDRVTITCKASQDVGTAVDWYQQKPGQAPKLLIYWASTRHTGVPDRFSGSGSGTDFTLTISRLQPEDFAVYYCQQYNSYPLTFGQGTKVDIK | –

Reference: article PMC12670495 (Molecular Pharmaceutics, 2025)
